Data published in the supplement of paper PMC12042874.
± gives the uncertainty stated by the source.

Experiment: amyloid nucleation score (Sup35N fusion, yeast selection) (log enrichment); library NNK1; higher = more nucleation; inactive = no reads after selection
Method in brief: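 Growth for 7 days at 30°C on medium lacking adenine and uracil followed a 24-hour induction with 100 μM copper sulfate of psi-negative yeast expressing peptides of 20 random codons fused to Sup35N. Input and output plasmid inserts were sequenced with Illumina, and sequences with under 100 input reads were excluded. Nucleation score is the DiMSum log enrichment of output over input reads, centred on the mode score of non-aggregating sequences.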

Row | Substance | amyloid nucleation score
1 | FYVMSMLIM | 0.029 ± 0.47
2 | DAVPSFTA | -0.666 ± 0.69
3 | IIILYMLRPAMSGWDVFACC | 0.627 ± 0.18
4 | MICAQSVS | 0.991 ± 0.24
5 | GGTSRLQDVDAALTGTWVSP | 0.042 ± 0.37
6 | TCVIFLVLCQALSFPVLALC | 0.095 ± 0.79
7 | SWAWIACIGAMNPEN | -0.478 ± 1.4
8 | LYLDIWYCQIKVTFIGP | inactive
9 | GILMVELWSRR | 2.56 ± 0.18
10 | LLLGDC | -1.43 ± 2.4
11 | VVESTGFIWAGEWVLWIEFS | -0.356 ± 0.82
12 | TSGWRYGYSSYHYRTLNGFV | -0.35 ± 0.47
13 | IVRVEWFSHYSFVFNGIDGG | 0.679 ± 0.54
14 | ISYRGSFHTNMWTCILRTAK | 0.082 ± 0.42
15 | CVSEDDMLLDYDPVCKFVWW | 2.62 ± 0.15
16 | YSSVDDGGDQHRGLSKAGHN | -0.525 ± 0.64
17 | CSQDYFIYYYPVLMLE | -0.112 ± 0.46
18 | CESGW | -0.115 ± 1.2
19 | YNNSLWPIRLVRSKQCLSWT | 0.215 ± 0.54
20 | LIIVEIMLDDVSVVSFRVIH | 0.195 ± 0.6
21 | RRRMFSCLDPEVWEVQRGRV | -0.348 ± 0.68
22 | TSYTNAVFESNFA | -0.426 ± 0.3
23 | VSTVLARSVWLWDTPFLRSE | -0.079 ± 0.34
24 | RMALCKSVCFTFWNIF | 3.69 ± 0.13
25 | ESVDGTSHAVGIMNGRLKID | 1.93 ± 0.1

Row | Substance | amyloid nucleation score
26 | GKNFYREDAVSVCRWL | 0.342 ± 0.64
27 | TSMWTYY | 0.298 ± 0.33
28 | FVPIF | -0.208 ± 0.72
29 | VGGNPN | 1.19 ± 0.98
30 | CLFNEALINANHLNNINWML | -0.361 ± 0.66
31 | GDSMV | -0.606 ± 0.4
32 | DFILQMLL | 0.401 ± 0.3
33 | CDMNPSDYDPLCEVSHRIIS | 0.561 ± 0.24
34 | KFVVMGWGYLTIRVVSVTDK | 1.92 ± 0.64
35 | LVVCAVVGSDLLWL | 0.848 ± 0.72
36 | SCSLITQGFRYPWLIYHRCY | 0.436 ± 0.93
37 | RNHCVYLECFDLVNHWMPKD | -0.24 ± 0.64
38 | LIYESNREHYYMRSRSAVTR | -0.825 ± 0.99
39 | QHCRA | 0.639 ± 0.88
40 | CPRHVALGHLNYLGQDFDLK | 0.326 ± 1.2
41 | KLLDSSVVDSLRQHCEAGLR | 0.075 ± 0.3
42 | NWVGGYTEIALLA | -0.344 ± 0.78
43 | TDIFCP | -1.47 ± 1.7
44 | CLLVLLLGLRLPYRPRLVFV | 0.463 ± 0.79
45 | IVASSISAQVSLLYRALCIY | 3.69 ± 0.16
46 | WRDTDCGLIN | inactive
47 | YVADGLKDKQRCSACFDASS | 4.93 ± 0.063
48 | SLSFSCSVKV | -0.149 ± 0.54
49 | FGDSFLSYGHMLIFFWYMTM | 1.21 ± 0.64
50 | SSLSSMLRGSWAGYVLNCL | inactive

Row | Substance | amyloid nucleation score
51 | ITYIRHYCKPVVL | 5.65 ± 0.11
52 | LWLLHGFDWWKCIYLPGRFL | 0.307 ± 0.97
53 | NIIDVTSDSCKPYHILEAIV | 0.015 ± 0.34
54 | LKYLR | 1.14 ± 0.15
55 | NHCSLFCAFSW | 1.86 ± 0.67
56 | YHKTYIRYWAIVFDMMVRFG | 0.372 ± 1.4
57 | VGYGASMYYYFFWHKFFLVF | 0.037 ± 1
58 | DKTKLLLTLRNWLSP | 0.177 ± 0.56
59 | RVNLKGWKRHSIRRSNMYRV | inactive
60 | TELGVSPIAKRRNSVLDHAL | -0.449 ± 1.1
61 | MLVNSM | 0.497 ± 0.49
62 | YLMLCTEIEPKRAGGGMSER | inactive
63 | NPHEDRGLESQSAPGGRKWR | 1.74 ± 0.64
64 | TFQGARYYYWPAVF | 1.33 ± 0.63
65 | PFEYLVRLIYCEDVAYLGTG | -0.148 ± 0.62
66 | LMGGNDNWGTTNPEDGILIW | -0.347 ± 0.41
67 | LPPTLVLMIHNRRVCRCSLA | 1.05 ± 0.69
68 | LRPYFLGCRRSKKPKALLAG | 0.252 ± 0.8
69 | LLFYLRSLKMYVLYSGHTMS | 1.25 ± 0.45
70 | ISATCL | 0.858 ± 0.76
71 | SVKSIRCLCSVVEYKETGHR | 0.438 ± 0.34
72 | FRKKCGVNEIYLWGDSG | inactive
73 | RVFLQTGWVCGVRHANNRLR | -0.006 ± 0.87
74 | AYLNREFGFLFTLNFGCGFF | -0.636 ± 0.39
75 | HWPGLVEYGLGWLRGRLVMG | 0.139 ± 0.6

Row | Substance | amyloid nucleation score
76 | DSLIDRSKVLKQTLYSTYWL | -0.12 ± 0.48
77 | YAALVHTHLKDYEISIYVIN | 0.988 ± 0.43
78 | AVVKAVVNGRILFYRTREVS | 0.226 ± 0.58
79 | VSGIVPDDLSVFDVHSKYV | 0.455 ± 0.33
80 | RCCYCLGLFVWATCVGGVRT | 3.1 ± 0.24
81 | EIWWYKVERAVLTVFREDCL | inactive
82 | ILVLYSVRWIEATR | -0.224 ± 0.35
83 | HYTLCCKFFNQHVGHAMQNE | 1.87 ± 0.51
84 | HTCGIDGLNKRMT | -0.791 ± 1.6
85 | MTVCM | 0.125 ± 1.4
86 | SVSVNHSLPTLESDL | -0.682 ± 0.62
87 | ELRCLQVINGLASLSASVWW | 0.067 ± 0.64
88 | LYLNADLYYE | 0.005 ± 0.7
89 | SGRYMWQEISLMFCLSDVSP | 0.836 ± 0.58
90 | KKRPRYRRWTS | 0.578 ± 0.52
91 | LLVGMPPNIDM | -0.078 ± 0.41
92 | SYICLHYFCIQ | 5.745 ± 0.055
93 | NKRTLLVVY | -1.19 ± 0.81
94 | WDEFGVDEWSYWLLLWYVAR | 0.799 ± 0.97
95 | LLLIFNEELW | -0.28 ± 0.43
96 | WSGWAKPSHYVALGRVGSWE | -0.075 ± 0.63
97 | NRLATLVDVTVMQSNTFELL | 0.748 ± 0.35
98 | AMVGLMMELAHRKLNR | 0.523 ± 0.45
99 | KSMMDMSYLMEYIGI | -2.65 ± 2.4
100 | DASSKIRPSIGRMQKHWY | -0.513 ± 0.85

Row | Substance | amyloid nucleation score
101 | FRVWSAFPYVGKSSPFGHSS | -0.89 ± 0.53
102 | RMVTTIIERVSIVCMKPSYR | 1.35 ± 0.88
103 | WCSKYCMMPSFPTMSRPVPL | -0.426 ± 0.44
104 | YCEYILGFCFEMYAFGNRSP | 0.573 ± 0.62
105 | RNTVQYVFYPQDLWWSAGVQ | 5.429 ± 0.048
106 | FYPLVTFFVLHHGNMNIHRV | 6.778 ± 0.066
107 | LCSMKMIYQKC | 0.177 ± 0.33
108 | LNCCRMGGVLS | 0.11 ± 0.42
109 | DAFAGF | 0.054 ± 0.59
110 | VLGERYCPSNVLWLHLCGGE | 0.315 ± 0.28
111 | ISKSFWTRGECCRK | 0.368 ± 0.39
112 | MQGFHSW | inactive
113 | ISHNQIWVRIGISRLFQHKV | 2 ± 0.35
114 | QFMIICHMMVNNW | 7.003 ± 0.044
115 | LEVVHRVLCTFCLFDSLMVY | 1.78 ± 0.26
116 | IYVLYQIERSVK | -0.154 ± 0.58
117 | ESMLSSIRGLHNG | -0.851 ± 1.7
118 | ICDINQCRMAFYLCFLLREY | 3.35 ± 0.099
119 | LTYRVFIHYRSRQYVFGTVS | -0.667 ± 0.62
120 | TCMWMILLFINR | 0.608 ± 0.27
121 | MLSGSVAESKNLIQLCAFFM | 6.704 ± 0.047
122 | HNSLWGYFFMF | 3.19 ± 0.12
123 | SALHVHRVKGSRREVSRDT | -0.072 ± 0.31
124 | TGRCR | inactive
125 | RLYTFVLPRFILLEKRHSTN | 0.255 ± 0.32

Row | Substance | amyloid nucleation score
126 | VCYGVLPFEEWKMSFSACVT | 0.369 ± 0.37
127 | ARMFELRPLNRTHYSRAKRT | 0.124 ± 0.5
128 | SYCTGLFWEKRVVIMLVSQV | -0.103 ± 0.53
129 | VAEEYSN | inactive
130 | ENIPARRLKCPFNTP | -0.511 ± 1.2
131 | GHLQGPLSTLIHDW | 0.564 ± 0.47
132 | SFFGFMVMTSRDDRFRLQ | 3.04 ± 0.085
133 | IISPYHLLLIKYRSSCSLLH | 0.985 ± 0.33
134 | WQRNDQWMVVQVITVSV | 0.176 ± 0.47
135 | RLFLSLLMKSRTIMRRKGLV | 2.54 ± 0.15
136 | MLGSYLHVDSGNCTKVLRTV | 0.326 ± 0.41
137 | CRAGY | -0.534 ± 0.64
138 | NAFSDRLTGCRLRGGMGRTS | -0.526 ± 0.88
139 | HEGMLPIDVLRHSRPRQPFV | -0.686 ± 0.83
140 | LMSLIMI | 0.032 ± 0.44
141 | YCCYLMCYSRRILDGP | 0.174 ± 0.43
142 | LDWLMGGRTA | -0.598 ± 1.7
143 | RYPPG | -0.077 ± 1.1
144 | WICQTGRFNELTHRCCVWFF | 0.762 ± 0.47
145 | AICKRRQLRVLSQALRLSLL | 1.14 ± 0.4
146 | SPRLAGMVSMVDKCRRASGR | 0.097 ± 0.33
147 | RLYSYVFSGSPHIGWHLCSM | 3.82 ± 0.11
148 | VVVCAVHDDYSINRAIEDER | -0.183 ± 0.4
149 | NACGQVLCWYL | 8.816 ± 0.058
150 | SIQPIW | 0.952 ± 0.5

Row | Substance | amyloid nucleation score
151 | ASSGSVGVLNLATHTTVKWQ | 4.04 ± 0.14
152 | WSTGDVLVLVKLYYAFMCVI | -0.819 ± 0.27
153 | KFVTVKTRQLKSAGASIVSG | -0.119 ± 0.69
154 | WHRGYGMLTRLRWRPDTVLF | -0.052 ± 1.2
155 | GGYGSIECFRSLVREKCCSV | 0.086 ± 0.62
156 | SYHNLCGSESGQVVNNQDRM | -0.852 ± 0.51
157 | KACFPLI | 0.631 ± 0.45
158 | RSPIGGLLWINLRSPACEWG | inactive
159 | FLLREQQGLTEVMKEV | 0.481 ± 0.52
160 | WTAWADNSACSLCGQN | 0.859 ± 0.73
161 | VKYLRYFSSLDLLLIVLQAI | 0.31 ± 1.2
162 | LCFVVVTSHDRGMHVIKVET | -0.857 ± 0.51
163 | PYWSDKWVFCRLKVVFIHVL | -0.066 ± 0.69
164 | RQGPGRLHSTCKTL | -0.257 ± 1.4
165 | LLYVLSTLIMYTSTMYIYQV | 0.662 ± 0.51
166 | HNVLRSHTSRYRYVM | 0.226 ± 0.7
167 | KNDYSYWL | -0.275 ± 0.65
168 | VFSFYNRNLLILNISLYGYC | 5.89 ± 0.085
169 | QSNLYLLALELAYECYSGCH | 0.049 ± 0.72
170 | RDRNNCYFSDDSNLREAT | -0.634 ± 0.62
171 | SANMKYRTLKQSLG | 0.176 ± 0.52
172 | NYVSLGDVKRRMPGLFELTA | 0.048 ± 0.43
173 | GPSLFG | 0.121 ± 0.37
174 | YKNFKFSDDTRMFVNNVSVY | 1.25 ± 0.56
